Measured values as given in article PMC4822050 (2016).
Values belong to the binder of their own block, whether it stands above or below them. Non-standard residues stand in square brackets, D forms with d. No end group written: not given here. pS = N[C@@H](COP(=O)(O)O)C(=O)O

B1: TTD of UHRF1 (residues 134–285) (domain or fragment)
chain: LYKVNEYVDARDTNMGAWFEAQVVRVTRKAPSRDEPCSSTSRPALEEDVIYHVKYDDYPENGVVQMNSRDVRARARTIIKWQDLEVGQVVMLNYNPDNPKERGFWYDAEISRKRETRTARELYANVVLGDDSLNDCRIIFVDEVFKIERPGE
B2: Spacer of UHRF1 (residues 587–674) (domain or fragment)
chain: PGPWTKEGKDRIKKLGLTMQYPEGYLEALANREREKENSKREEEEQQEGGFASPRTGKGKWKRKSAGGGPSRAGSPRRTSKKTKVEPY

Tests used:
Spacer^Δ650–654 = biological target: T1, Spacer^Δ650–654 (human, UniProt Q96T88 587-674, Δ650–654); test: ITC
T1 sequence: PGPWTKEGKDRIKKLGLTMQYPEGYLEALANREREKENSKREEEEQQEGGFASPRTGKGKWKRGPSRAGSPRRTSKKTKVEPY

Spacer^Δ665–669 = biological target: T2, Spacer^Δ665–669 (human, UniProt Q96T88 587-674, Δ665–669); test: ITC
T2 sequence: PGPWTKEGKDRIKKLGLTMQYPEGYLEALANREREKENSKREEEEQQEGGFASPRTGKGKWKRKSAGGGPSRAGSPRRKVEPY

Spacer^Δ655–659 = biological target: T3, Spacer^Δ655–659 (human, UniProt Q96T88 587-674, Δ655–659); test: ITC
T3 sequence: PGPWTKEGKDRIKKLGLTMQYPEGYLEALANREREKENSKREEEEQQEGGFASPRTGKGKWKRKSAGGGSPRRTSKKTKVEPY

Spacer^Δ670–674 = biological target: T4, Spacer^Δ670–674 (human, UniProt Q96T88 587-674, Δ670–674); test: ITC
T4 sequence: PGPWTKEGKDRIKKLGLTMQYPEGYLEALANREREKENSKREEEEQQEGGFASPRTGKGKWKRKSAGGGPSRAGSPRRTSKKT

Spacer^Δ660–664 = biological target: T5, Spacer^Δ660–664 (human, UniProt Q96T88 587-674, Δ660–664); test: ITC
T5 sequence: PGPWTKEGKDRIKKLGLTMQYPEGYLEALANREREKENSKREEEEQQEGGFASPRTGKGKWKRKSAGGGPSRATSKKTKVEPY

Spacer^Δ642–651 = biological target: T6, Spacer^Δ642–651 (human, UniProt Q96T88 587-674, Δ642–651); test: ITC
T6 sequence: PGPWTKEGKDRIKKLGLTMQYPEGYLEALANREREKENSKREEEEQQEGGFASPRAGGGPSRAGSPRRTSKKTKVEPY

[1] = biological target: B2; test: ITC
[2] = biological target: T7, SRA–Spacer of UHRF1 (residues 414–674) (human, UniProt Q96T88 414-674); test: ITC
T7 chain: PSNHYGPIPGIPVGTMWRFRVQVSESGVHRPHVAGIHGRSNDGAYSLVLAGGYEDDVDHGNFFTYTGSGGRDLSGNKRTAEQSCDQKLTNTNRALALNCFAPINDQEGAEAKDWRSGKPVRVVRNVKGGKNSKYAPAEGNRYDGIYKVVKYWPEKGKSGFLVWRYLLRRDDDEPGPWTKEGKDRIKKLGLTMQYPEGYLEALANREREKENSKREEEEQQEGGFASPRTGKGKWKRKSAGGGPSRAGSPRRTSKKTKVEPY

[3] = biological target: B2; test: ITC; in presence of hm-DNA (1:2)
[4] = biological target: T7, SRA–Spacer of UHRF1 (residues 414–674); test: ITC; in presence of hm-DNA (1:2)
Spacer S651D = biological target: T8, Spacer S651D (human, UniProt Q96T88 587-674, S651D); test: ITC
T8 sequence: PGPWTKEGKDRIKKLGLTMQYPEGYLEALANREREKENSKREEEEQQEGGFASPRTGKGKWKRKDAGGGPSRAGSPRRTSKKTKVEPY

Spacer S639D = biological target: T9, Spacer S639D (human, UniProt Q96T88 587-674, S639D); test: ITC
T9 sequence: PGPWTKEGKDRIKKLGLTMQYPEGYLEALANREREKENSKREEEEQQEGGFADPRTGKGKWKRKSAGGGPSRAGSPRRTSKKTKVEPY

Spacer K648D = biological target: T10, Spacer K648D (human, UniProt Q96T88 587-674, K648D); test: ITC
T10 sequence: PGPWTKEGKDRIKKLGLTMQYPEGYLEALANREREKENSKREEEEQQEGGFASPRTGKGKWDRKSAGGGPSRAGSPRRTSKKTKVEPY

Spacer S666D = biological target: T11, Spacer S666D (human, UniProt Q96T88 587-674, S666D); test: ITC
T11 sequence: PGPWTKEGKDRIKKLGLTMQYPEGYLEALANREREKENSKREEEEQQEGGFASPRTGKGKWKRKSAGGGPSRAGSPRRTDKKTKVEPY

Spacer R649A = biological target: T12, Spacer R649A (human, UniProt Q96T88 587-674, R649A); test: ITC
T12 sequence: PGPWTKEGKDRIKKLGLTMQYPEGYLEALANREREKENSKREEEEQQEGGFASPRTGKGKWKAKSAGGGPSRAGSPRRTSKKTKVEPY

[5] = biological target: B1; test: ITC
[6] = biological target: B1; test: ITC; in presence of Linker (TTD:Linker 1:2)
[7] = biological target: B1; test: ITC; in presence of Linker
[8] = biological target: B1; test: ITC; phosphorylated S651

Binder: B1
Kd (Spacer^Δ650–654): 3800 nM
Kd (Spacer^Δ665–669): 1850 nM
Kd (Spacer^Δ655–659): 2980 nM
Kd (Spacer^Δ670–674): 950 nM
Kd (Spacer^Δ660–664): 2470 nM
Kd (Spacer^Δ642–651): 11200 nM
Kd [1]: 2340 nM
Kd [2]: 820 nM
Kd [3]: 2040 nM
Kd [4]: 143000 nM
Kd (Spacer S651D): 8810 nM
Kd (Spacer S639D): 1150 nM
Kd (Spacer K648D): 5940 nM
Kd (Spacer S666D): 1260 nM
Kd (Spacer R649A): 21400 nM

Binder: B2
Kd [6]: 3730 nM
Kd [7]: 3730 nM

Binder: TGKGKWKRKSAGGGPSRAGSPRRTSKKTKVEPY (domain or fragment) [Spacer^642–674]
Kd [5]: 970 nM

Now from value to binder:

Kd [5]: 1260 nM
Binder: TGKGKWKRKSAGGGPSRAGSPRR [unmodified peptide of Spacer^642–664]

Kd [8]: 27800 nM
Binder: TGKGKWKRK[pS]AGGGPSRAGSPRR [peptide of Spacer^642–664 phosphorylated at S651]
